# Patent publication US7045552B2, “Pharmaceutical composition for improved administration of HIV gp41-derived peptides, and its use in therapy” (Trimeris, Inc., priority 2002, dated 2006)
# Legend:
# HIV-1 gp41 (HIV-1) [1] = target: HIV-1 gp41 (HIV-1)
# HIV = conditions: cited from earlier work
# HIV-1 gp41 (HIV-1) [2] = target: HIV-1 gp41 (HIV-1); remark: listed apart in the source
substance,measurement,setting,value
T1249 (SEQ ID NO:5) (peptide),"IC50 (ng/ml), Magi-CCR5 infectivity assay; mannitol formulation",HIV-1 gp41 (HIV-1) [1],3.6 ng/mL
NNLLRAIEAQQHLLQLTVWGIKQLQARILAVERYLKDQ [DP107],"50% effective concentration (EC50), blocked infection of T cells",HIV,1 µg/mL
T20 (SEQ ID NO:4) (peptide),"IC50, antiviral potency by the methods of Example 2; PEG 1500 formulation",HIV-1 gp41 (HIV-1) [2],6.6 ng/mL
